Measurements as given in patent US20260070974A1 (NONA BIOSCIENCES SUZHOU, published 2026).
Values joined by “and” are separate entries in the source; they are usually repeats but may differ in a detail not shown here. Equal entries are not always repeated.

T1: human Siglec-15 ECD-his protein (Acrobiosystems, Cat #: SG5-H52H3) (human, UniProt Q6ZMC9 20-263)
T1 construct: Bought protein; only its extracellular domain stood in the assay; also called human Siglec-15 protein; recombinant human Siglec-15 protein; not shown: his tag
T1 sequence: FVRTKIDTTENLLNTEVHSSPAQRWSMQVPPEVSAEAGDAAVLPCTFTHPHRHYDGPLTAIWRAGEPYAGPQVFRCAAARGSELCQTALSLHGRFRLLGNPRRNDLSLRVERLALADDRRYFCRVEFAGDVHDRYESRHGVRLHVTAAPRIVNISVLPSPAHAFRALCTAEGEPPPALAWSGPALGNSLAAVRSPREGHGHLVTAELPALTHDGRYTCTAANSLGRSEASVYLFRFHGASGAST

T2: human Siglec-4a-his protein (Acrobiosystems, Cat MAG-H52H8) (human, UniProt P20916 20-516)
T2 construct: Bought protein; not shown: his tag
T2 sequence (looked up): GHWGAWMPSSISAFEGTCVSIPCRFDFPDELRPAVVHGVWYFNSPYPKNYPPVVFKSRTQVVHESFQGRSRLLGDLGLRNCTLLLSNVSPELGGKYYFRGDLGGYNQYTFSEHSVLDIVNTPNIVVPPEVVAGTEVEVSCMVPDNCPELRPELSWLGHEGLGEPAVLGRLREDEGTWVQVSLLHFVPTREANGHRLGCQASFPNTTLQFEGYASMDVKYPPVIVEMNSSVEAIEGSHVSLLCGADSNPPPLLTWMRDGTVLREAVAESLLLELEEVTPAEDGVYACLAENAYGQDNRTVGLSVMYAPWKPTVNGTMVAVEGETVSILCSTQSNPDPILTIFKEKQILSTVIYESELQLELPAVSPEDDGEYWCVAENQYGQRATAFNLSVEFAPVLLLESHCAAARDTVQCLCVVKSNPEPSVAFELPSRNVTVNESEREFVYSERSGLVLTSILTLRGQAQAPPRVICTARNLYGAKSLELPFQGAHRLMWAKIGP


Key:
[1] = biological target: T3, mouse Siglec-15-his protein (Acrobiosystems, Cat #: SG5-M52H7) (mouse); assay: ELISA, coated mouse Siglec-15-his
T3 construct: Bought protein; also called mouse Siglec-15 protein
Method: (§1) 1 g/mL mouse Siglec-15-his protein (Acrobiosystems, Cat #: SG5-M52H7) dissolved in PBS was added to an ELISA plate at 100 μL/well for coating and the plate was incubated overnight at 4° C. The ELISA plate was then blocked with PBST (PBS+0.05% Tween 20) containing 2% BSA at 200 μL/well and incubated at 37° C. for 1 h. The ELISA plate was washed 4 times with PBST. The anti-Siglec-15 antibody diluted in a gradient (5-fold dilution, starting concentration: 6.67 nM) was added to the ELISA plate at 100 μL/well and the plate was incubated at 37° C. for 1 h. The ELISA plate was washed 4 times with PBST. The goat anti-human IgG (H+L)-HRP (1:5000, Jackson, Cat: 109-035-088) was added at 100 μL/well and the plate was incubated at 37° C. for 1 h. The ELISA plate was washed 4 times with PBST. The TMB substrate (Biopanda, Cat: TMB-S-003) was added at 100 μL/well, and the plate was incubated at room temperature for 5 min, and then the stop buffer (Solarbio, Cat #: C1058) was added at 100 μL/well to stop the reaction.

[2] = biological target: T1, human Siglec-15 ECD-his protein …; assay: ELISA, coated human Siglec-15 ECD-his
Method: as §1, with “human Siglec-15 ECD-his” for “mouse Siglec-15-his”, “SG5-H52H3)” for “SG5-M52H7)”, “Cat #:” for “Cat:”

[3] = biological target: T2, human Siglec-4a-his protein …; assay: ELISA on coated human Siglec-4a-his, antibody at 100 nM and 10 nM, goat anti-human IgG-HRP, OD450
Method: as §1, with “Human Siglec-15 ECD-his” for “1 g/mL mouse Siglec-15-his”, “SG5-H52H3), human Siglec-2-his protein (Acrobiosystems, Cat CD2-H52H8), human Siglec-4a-his protein (Acrobiosystems, Cat MAG-H52H8), human Siglec-3-his protein (Acrobiosystems, Cat CD3-H5226), human Siglec-10-his protein (Acrobiosystems, Cat SIO-H52H9), and human PD-L1/B7-H1-his protein (Acrobiosystems, Cat PD1-H5229), each at 1 μg/mL and” for “#: SG5-M52H7)”, “PBS, were each” for “PBS was”, “(concentrations: 100 nM and 10” for “(5-fold dilution, starting concentration: 6.67”, “Cat” for “Cat:”

| Binder | EC50 [1] | EC50 [2] | binding result [3] |
| --- | --- | --- | --- |
| PR300066 (Tab) (antibody, human IgG1, kappa, V domains shown, variable region from clone 5G12 of WO 2018/057735A1, on human IgG1/kappa constant regions; also called 5G12) VH: QVQLQQPGAELVKPGASVKMSCKASGYTFTSYWITWVIQRPGQGLEWIGDIYCGSDTMHYNEKFKNKATLTVDTSSSTAYMQLSSLTSEDSAVYYCARWWDYGSSYDYFDYWGQGTTLTVSS VL: DIKMTQSPSSMYASLGERVTITCKASQDINSYLSWFQQKPGKSPKTLIYRANRLVDGVPSRFSGSGSGQDYSLTISSLEYEDMGIYYCLQYDEFPYTFGGGTKLEIKR | 0.019 nM and 0.023 nM | 0.022 nM and 0.021 nM and 0.012 nM | no binding (tested: 100 nM) |
| PR301289 (antibody, human IgG1, kappa, V domains shown, Parent of the PTM variants PR301289-1 and -2) VH: QVQLVQSGAEVKKPGASVKVSCRASGYTFTSYDINWVRQATGQGLEWMGWMNPHSGDTGYAQNFQGRVTMTWNTSISTAYMELSSLRSEDTAVYYCARRRVGVYYYGMDVWGQGTTVTVSS VL: ENVLTQSPGTLSLSPGERATLSCRASQSVSSSYFGWYQQKPGQAPRLLIYGASSRATGIPDRFSGSGSGTDFTLTISRLEPEDFAVYYCQQYGSSPITFGQGTRLEIKR | 0.036 nM | 0.027 nM and 0.058 nM | no binding (tested: 100 nM) |

Further lines, results first:

| EC50 [1] | EC50 [2] | binding result [3] | Binder |
| --- | --- | --- | --- |
| 0.051 nM | 0.027 nM and 0.018 nM and 0.022 nM | no binding (tested: 100 nM) | PR301286 (antibody, human IgG1, kappa, V domains shown, Parent of the PTM variants PR301286-1, -3, -5, -6, -7) VH: QVQLVESGGGVVQPGKSLRLSCAASGFTFSSYGMHWVRQAPGKGLEWVAVIWIDGSNRYYAASVKGRFTISRDNSKNTLYLQMNSLRAEDTAVYYCTRGYGDYAYVMDVWGQGASVTVSS VL: DIVMTQSPLSLPVTPGEPASISCRSSQSLLPGNGYNYLDWYLQKPGQSPQLLIYLGSNRASGVPDRFSGSGSGTDFTLKISRVEAEDVGIYYCMQALQSPLTFGGGTKVEIKR |
| – | 0.031 nM | no binding (tested: 100 nM) | PR301285 (antibody, human IgG1, kappa, V domains shown) VH: QVQLQESGPGLVKPSETLSLTCTVSGGSMISYYWSWLRQPPGKGLEWIGYIYYSGNTNYNPSLKSRITIAVDTSKNQFSLKLNSVTAADTAVYYCARERELHPYYFDYWGQGTLVTVSS VL: DIQLTQSPSFLSASVGDRVTITCRASQGIDNYLAWYQQKPGKAPKVLIYAASTLQSGVPSRFSGSGSGTEFTLTISSLQPEDFATYYCQQLNSYPLTFGGGTKVEIKR |
